Experimental data published in patent US20170226172A1 (NEW YORK UNIVERSITY, published 2017).
Where two headings read alike, the source gives them in different places. Each block holds one binder with its values, some of them ahead of it.

Assays:
[1] = target: T1, alpha-Klotho with endogenous FGFRs on HEK293-alphaKlotho cells; assay: cell-based or functional assay
[2] = target: T2, FGFR1c/alpha-klotho on BaF3 cells (Example 12) (Homo sapiens (Human), UniProt P11362 22-822; Q9UEF7 34-1012); assay: FACS competitive binding on BaF3 cells expressing FGFR1c and Klotho, against 0.2 ug/mL FGF-23; drug 0 to 2430 nM; the number stands beside the legend entry under the title 'FACS CO… BINDING IC50', the unit is that of the axis (nM DRUG)
T2 construct: also called BaF3 cells expressing FGFR1c and αklotho; BAF3 lines engineered to express FGFR1c/αklotho

[3] = target: T3, FGFR4/alpha-klotho on BaF3 cells (Example 12) (Homo sapiens (Human), UniProt P22455 22-802; Q9UEF7 34-1012); assay: FACS competitive binding on BaF3 cells expressing FGFR4 and Klotho, against 0.2 ug/mL FGF-23; drug 0 to 2430 nM; the number stands beside the legend entry under the title 'FACS CO… BINDING IC50', the unit is that of the axis (nM DRUG)
T3 construct: also called BaF3 cells expressing FGFR4 and αklotho; BaF3-FGFR4/αklotho cells

[4] = target: T1, alpha-Klotho with endogenous FGFRs on …; assay: FACS competition on HEK293-alphaKlotho cells against a sub-saturating dose of FGF23
Excerpt: IC50 values were derived from the resulting inhibition binding curves (FIG. 7).

[5] = target: T1, alpha-Klotho with endogenous FGFRs on …; assay: FACS competition on HEK293-alphaKlotho cells: peptide 0.01 to about 1000 nM against 0.2 ug/mL full-length human FGF23, geo mean of PE intensity
[6] = target: T1, alpha-Klotho with endogenous FGFRs on …; assay: as above; remark: listed apart in the source
[7] = target: T4, FGFR1c/alpha-klotho receptor complex, murine, pre-formed (SPR analyte) (mouse, UniProt P16092 22-376; O35082 35-982); assay: SPR competition; full-length murine FGF23 on the Biacore chip, set amount of pre-formed receptor complex with increasing c-tail construct
T4 construct: also called pre-formed receptor complex (mouse)
T4 sequence (looked up) 1: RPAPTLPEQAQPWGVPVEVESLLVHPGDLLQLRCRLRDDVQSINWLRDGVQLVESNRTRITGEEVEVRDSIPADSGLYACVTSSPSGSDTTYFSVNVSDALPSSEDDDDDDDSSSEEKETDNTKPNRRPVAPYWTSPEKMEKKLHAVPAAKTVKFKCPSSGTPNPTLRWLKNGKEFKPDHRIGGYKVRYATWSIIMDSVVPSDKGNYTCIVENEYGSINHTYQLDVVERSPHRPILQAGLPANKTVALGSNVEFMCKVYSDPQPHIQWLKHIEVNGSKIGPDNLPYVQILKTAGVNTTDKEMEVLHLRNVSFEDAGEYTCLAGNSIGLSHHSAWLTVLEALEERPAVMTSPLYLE
T4 sequence (looked up) 2: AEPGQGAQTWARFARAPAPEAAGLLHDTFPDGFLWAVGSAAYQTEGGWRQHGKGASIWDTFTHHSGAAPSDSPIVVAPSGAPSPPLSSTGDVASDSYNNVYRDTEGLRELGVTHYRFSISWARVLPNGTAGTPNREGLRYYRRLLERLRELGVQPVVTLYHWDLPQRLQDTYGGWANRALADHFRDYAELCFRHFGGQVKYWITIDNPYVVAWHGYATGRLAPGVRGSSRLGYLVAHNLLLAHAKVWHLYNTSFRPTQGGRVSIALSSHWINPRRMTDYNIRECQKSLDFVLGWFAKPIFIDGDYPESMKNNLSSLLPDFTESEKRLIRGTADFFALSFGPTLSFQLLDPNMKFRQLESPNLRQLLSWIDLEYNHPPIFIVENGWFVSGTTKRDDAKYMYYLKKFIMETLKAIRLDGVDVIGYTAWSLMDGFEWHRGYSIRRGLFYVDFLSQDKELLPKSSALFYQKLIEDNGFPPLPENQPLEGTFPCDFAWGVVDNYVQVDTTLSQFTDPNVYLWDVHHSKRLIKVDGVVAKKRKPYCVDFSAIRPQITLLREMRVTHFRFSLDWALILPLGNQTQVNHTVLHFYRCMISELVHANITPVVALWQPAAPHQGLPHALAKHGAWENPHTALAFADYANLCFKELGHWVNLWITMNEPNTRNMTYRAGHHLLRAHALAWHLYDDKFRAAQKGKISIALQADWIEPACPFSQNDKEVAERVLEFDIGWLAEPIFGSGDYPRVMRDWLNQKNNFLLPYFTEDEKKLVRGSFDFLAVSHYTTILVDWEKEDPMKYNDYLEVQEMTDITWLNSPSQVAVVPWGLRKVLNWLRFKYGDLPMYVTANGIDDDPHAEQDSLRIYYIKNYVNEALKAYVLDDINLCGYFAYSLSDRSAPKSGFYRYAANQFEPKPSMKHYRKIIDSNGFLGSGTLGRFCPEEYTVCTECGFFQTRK
Procedure: The potency of the human and murine constructs were determined via both competitive inhibition using SPR and cellular viability assays (Cell Titer Glo). […] Experiments were done in a species specific manner meaning that all components were from a single species, either mouse or human. For the functional experiments, BAF3 cells were engineered to stably express FGFR1c and α-klotho. BAF3 cells are dependent on IL-3 for growth. […] Once again this was done in a species specific manner.

[8] = target: FGFR1c and alpha-klotho, murine, on BAF3 cells (Example 7) (mouse, UniProt P16092 22-822; O35082 35-1014); assay: cell-based or functional assay
[9] = target: FGFR1c and alpha-klotho, human, on BAF3 cells (Example 7) (human, UniProt P11362 22-822; Q9UEF7 34-1012); assay: cell-based or functional assay
[10] = target: T1, alpha-Klotho with endogenous FGFRs on …; assay: FACS competition on HEK293-alphaKlotho cells: peptide 0.01 to about 1000 nM against 0.2 ug/mL full-length human FGF23, geo mean of PE intensity; remark: listed apart in the source

B2: Human FGF23 c-tail 70 (-2 amino acid construct) peptide (peptide)
peptide: SAEDDSERDPLNVLKPRARMTPAPASCSQELPSAEDNSPMASDPLGVVRGGRVNTHAGGTGPEGCRPFAK
notes: also called truncated FGF23 c-tail peptide, 70 amino acids
IC50 [6]: 2.4 nM

B4: Human Wild Type FGF23 c-tail Fc (FGF23-c-tail-FC1), mature (Fc fusion)
chain: EPKSCDKTHTCPPCPAPEAAGAPSVFLFPPKPKDTLMISRTPEVTCVVVDVSHEDPEVKFNWYVDGVEVHNAKTKPREEQYNSTYRVVSVLTVLHQDWLNGKEYKCKVSNKALPAPIEKTISKAKGQPREPQVYTLPPSREEMTKNQVSLTCLVKGFYPSDIAVEWESNGQPENNYKTTPPVLDSDGSFFLYSKLTVDKSRWQQGNVFSCSVMHEALHNHYTQKSLSLSPGGGGGSSAEDDSERDPLNVLKPRARMTPAPASCSQELPSAEDNSPMASDPLGVVRGGRVNTHAGGTGPEGCRPFAKFI
notes: Made in CHO cells; also called HuFGF23 c-tail Fc; huFGF23-Fc
IC50, inhibition of FGF23-mediated Egr1-luciferase activity in HEK293 cells expressing alpha-klotho (after assay optimization) [1]: 21.5 nM
IC50, inhibition of FGF23-mediated Egr1-luciferase activity in HEK293 cells expressing alpha-klotho (prior to assay optimization) [1]: 202 nM
IC50 [2]: 20.4 nM
IC50, cellular viability (Cell Titer Glo) of BAF3 cells expressing FGFR1c and alpha-klotho kept alive by FGF23 [9]: 53 nM
IC50 (read off the curve) [4]: ~10 nM

B5: Human FGF23 c-tail 69 (-3 amino acid construct) peptide (peptide)
peptide: SAEDDSERDPLNVLKPRARMTPAPASCSQELPSAEDNSPMASDPLGVVRGGRVNTHAGGTGPEGCRPFA
notes: also called truncated FGF23 c-tail peptide, 69 amino acids
IC50 [10]: 2.8 nM

The next lines start with results.

IC50, inhibition of FGF23 signaling (Egr1-luciferase) in HEK293 cells expressing alpha-klotho (prior to assay optimization) [1]: 81.9 nM
IC50 [2]: 15.4 nM
IC50 [3]: 23 nM
IC50 (read off the curve) [4]: ~20 nM
IC50 [5]: 2.9 nM
B1: Wild Type Human FGF23 c-tail 180-251 (72 amino acid peptide) (peptide)
peptide: SAEDDSERDPLNVLKPRARMTPAPASCSQELPSAEDNSPMASDPLGVVRGGRVNTHAGGTGPEGCRPFAKFI
notes: also called FGF23 c-tail peptide; unconjugated FGF23 c-tail peptide

Ki [7]: 10 nM
B3: Wild Type Murine FGF23 c-tail Fc (muFGF23-c-tail-FC1), mature (Fc fusion)
chain: VPRDAGCKPCICTVPPVSSVFIFPPKPKDVLTITLTPKVTCVVVDISKDDPEVQFSWFVDDVEVHTAQTQPREEQFNSTFRSVSELPIMHQDWLNGKAFACAVNSAAFPAPIEKTISKTKGRPKAPQVYTIPPPKEQMAKDKVSLTCMITDFFPEDITVEWQWNGQPAENYKNTQPIMDTDGSYFVYSKLNVQKSNWEAGNTFTCSVLHEGLHNHHTEKSLSHSPGGGGGSSAEDPPERDPLNVLKPRPRATPVPVSCSRELPSAEEGGPAASDPLGVLRRGRGDARGGAGGADRCRPFPRFV
notes: also called Murine FGF23-Fc; surrogate molecule
IC50, cellular viability (Cell Titer Glo) of BAF3 cells expressing FGFR1c and alpha-klotho kept alive by FGF23 [8]: 35 nM
